Source: paper PMC8558294, “Defects in the STIM1 SOARα2 domain affect multiple steps in the CRAC channel activation cascade” (Cellular and Molecular Life Sciences: CMLS, 2021)

Molecular target: Orai1 V102A (human, UniProt Q96D31-1 1-301, V102A)
Test: cell-based or functional assay

Sequence of Orai1 V102A (Q96D31 whole entry V102A): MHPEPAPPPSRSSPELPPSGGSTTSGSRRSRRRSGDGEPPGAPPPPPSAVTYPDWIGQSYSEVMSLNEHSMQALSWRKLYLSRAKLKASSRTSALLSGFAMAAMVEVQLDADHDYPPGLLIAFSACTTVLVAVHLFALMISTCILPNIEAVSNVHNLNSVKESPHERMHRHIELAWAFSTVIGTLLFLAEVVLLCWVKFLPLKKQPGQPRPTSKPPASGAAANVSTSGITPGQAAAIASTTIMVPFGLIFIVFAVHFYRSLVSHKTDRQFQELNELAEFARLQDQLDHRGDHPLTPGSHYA

Vrev [mV] of Orai1 V102A currents, whole-cell patch clamp in HEK293 cells: 31.6 mV
B1: STIM1 Δα2 (STIM1 Δ393-398), CFP/YFP-labeled (natural protein, human, UniProt Q13586-1 23-685, looked up)
chain: LSHSHSEKATGTSSGANSEESTAAEFCRIDKPLCHSEDEKLSFEAVRNIHKLMDDDANGDVDVEESDEFLREDLNYHDPTVKHSTFHGEDKLISVEDLWKAWKSSEVYNWTVDEVVQWLITYVELPQYEETFRKLQLSGHAMPRLAVTNTTMTGTVLKMTDRSHRQKLQLKALDTVLFGPPLLTRHNHLKDFMLVVSIVIGVGGCWFAYIQNRYSKEHMKKMMKDLEGLHRAEQSLHDLQERLHKAQEEHRTVEVEKVHLEKKLRDEINLAKQEAQRLKELREGTENERSRQKYAEEELEQVREALRKAEKELESHSSWYAPEALQKWLQLTHEVEVQYYNIKKQNAEKQLLVAKEGAEKIKKKRNTLFGSSSLDDVDHKILTAKQALSEVTAALRERLHRWQQIEILCGFQIVNNPGIHSLVAALNIDPSWMGSTRPNPAHFIMTDDVDDMDEEIVSPLSMQSPSLQSSVRQRLTEPQHGLGSQRDLTHSDSESSLHMSDRQRVAPKPPQMSRAADEALNAMTSNGSHRLIEGVHPGSLVEKLPDSPALAKKALLALNHGLDKAHSLMELSPSAPPGGSPHLDSSRSHSPSSPDPDTPSPVGDSRALQASRNTRIPHLAGKKAVAEEDNGSIGEETDSSPGRKKFPLKIFKKPLKK
